In the supplement of paper PMC10567573:

B1: ZBED1 (parent)
chain: EQVFSLGDGVSGGFFGIRDSSFL
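Further: lentivirally expressed fusions sorted by FACS into six bins by GFP to DsRed ratio, PSI derived from sequencing read proportions per bin multiplied by bin number.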

Variants of: B1
Assay: protein stability index of a GFP-peptide fusion (GPS, HEK-293T) (PSI 1-6); higher = more stable
Settings: c terminus: native
EQVFSLGDGVSGGGFGIRDSSFL [F14G] gave a protein stability index of 4.44.
Work on EQVFSLGDGVSGGPFGIRDSSFL [F14P] yielded a protein stability index of 4.08.
Work on EQVFSLGDGVSGGKFGIRDSSFL [F14K] yielded a protein stability index of 4.3.
EQVFSLGDGVSGGIFGIRDSSFL [F14I] gave a protein stability index of 3.21.
EQVFSLGDGVSGGMFGIRDSSFL [F14M] showed a protein stability index of 3.74.
EQVFSLGDGVSGGAFGIRDSSFL [F14A] gave a protein stability index of 3.82.
EQVFSLGDGVSGGCFGIRDSSFL [F14C] showed a protein stability index of 4.21.
Work on EQVFSLGDGVSGGDFGIRDSSFL [F14D] yielded a protein stability index of 4.16.
In the case of EQVFSLGDGVSGGLFGIRDSSFL [F14L], the protein stability index is reported as 3.67.
Variant EQVFSLGDGVSGGEFGIRDSSFL [F14E] has a protein stability index of 4.11.
EQVFSLGDGVSGGQFGIRDSSFL [F14Q] gave a protein stability index of 4.45.
Work on EQVFSLGDGVSGGHFGIRDSSFL [F14H] yielded a protein stability index of 4.24.
EQVFSLGDGVSGGSFGIRDSSFL [F14S] showed a protein stability index of 3.71.
EQVFSLGDGVSGGTFGIRDSSFL [F14T] gave a protein stability index of 4.12.
EQVFSLGDGVSGGRFGIRDSSFL [F14R] gave a protein stability index of 4.
For EQVFSLGDGVSGGNFGIRDSSFL [F14N], the protein stability index was 4.62.
Variant EQVFSLGDLVSGGFFGIRDSSFL [G9L] has a protein stability index of 2.01.
Work on EQVFSLGDWVSGGFFGIRDSSFL [G9W] yielded a protein stability index of 1.51.
Variant EQVFSLGDAVSGGFFGIRDSSFL [G9A] has a protein stability index of 3.15.
EQVFSLGDCVSGGFFGIRDSSFL [G9C] showed a protein stability index of 2.32.
For EQVFSLGDTVSGGFFGIRDSSFL [G9T], the protein stability index was 3.1.
In the case of EQVFSLGDIVSGGFFGIRDSSFL [G9I], the protein stability index is reported as 2.47.
EQVFSLGDYVSGGFFGIRDSSFL [G9Y] showed a protein stability index of 2.51.
Variant EQVFSLGDKVSGGFFGIRDSSFL [G9K] has a protein stability index of 2.99.
For EQVFSLGDPVSGGFFGIRDSSFL [G9P], the protein stability index was 3.29.
EQVFSLGDMVSGGFFGIRDSSFL [G9M] showed a protein stability index of 2.9.
Work on EQVFSLGDRVSGGFFGIRDSSFL [G9R] yielded a protein stability index of 2.86.
EQVFSLGDNVSGGFFGIRDSSFL [G9N] gave a protein stability index of 3.46.
With EQVFSLGDQVSGGFFGIRDSSFL [G9Q] the protein stability index was 3.16.
Variant EQVFSLGDHVSGGFFGIRDSSFL [G9H] has a protein stability index of 3.48.
In the case of EQVFSLGDVVSGGFFGIRDSSFL [G9V], the protein stability index is reported as 3.09.
In the case of EQVFSLGDFVSGGFFGIRDSSFL [G9F], the protein stability index is reported as 2.55.
Work on EQVFSLGDDVSGGFFGIRDSSFL [G9D] yielded a protein stability index of 4.
EQVFSLGDEVSGGFFGIRDSSFL [G9E] gave a protein stability index of 3.25.
With EQVFSLGDSVSGGFFGIRDSSFL [G9S] the protein stability index was 3.27.
Work on EQVFSLGDGVSPGFFGIRDSSFL [G12P] yielded a protein stability index of 3.5.
For EQVFSLGDGVSQGFFGIRDSSFL [G12Q], the protein stability index was 3.52.
Work on EQVFSLGDGVSMGFFGIRDSSFL [G12M] yielded a protein stability index of 2.88.
With EQVFSLGDGVSSGFFGIRDSSFL [G12S] the protein stability index was 3.55.
EQVFSLGDGVSHGFFGIRDSSFL [G12H] showed a protein stability index of 3.01.
Work on EQVFSLGDGVSYGFFGIRDSSFL [G12Y] yielded a protein stability index of 2.05.
EQVFSLGDGVSLGFFGIRDSSFL [G12L] showed a protein stability index of 2.3.
For EQVFSLGDGVSRGFFGIRDSSFL [G12R], the protein stability index was 2.92.
EQVFSLGDGVSEGFFGIRDSSFL [G12E] showed a protein stability index of 4.06.
Work on EQVFSLGDGVSAGFFGIRDSSFL [G12A] yielded a protein stability index of 3.41.
EQVFSLGDGVSFGFFGIRDSSFL [G12F] gave a protein stability index of 2.01.
EQVFSLGDGVSDGFFGIRDSSFL [G12D] showed a protein stability index of 4.06.
EQVFSLGDGVSVGFFGIRDSSFL [G12V] gave a protein stability index of 2.45.
For EQVFSLGDGVSNGFFGIRDSSFL [G12N], the protein stability index was 3.6.
Work on EQVFSLGDGVSIGFFGIRDSSFL [G12I] yielded a protein stability index of 1.42.
In the case of EQVFSLGDGVSWGFFGIRDSSFL [G12W], the protein stability index is reported as 1.72.
With EQVFSLGDGVSTGFFGIRDSSFL [G12T] the protein stability index was 3.28.
EQVFSLGDGVSKGFFGIRDSSFL [G12K] showed a protein stability index of 3.52.
With EQVFSLGDGVSCGFFGIRDSSFL [G12C] the protein stability index was 2.49.
EQVFFLGDGVSGGFFGIRDSSFL [S5F] showed a protein stability index of 1.75.
With EQVFYLGDGVSGGFFGIRDSSFL [S5Y] the protein stability index was 2.63.
In the case of EQVFCLGDGVSGGFFGIRDSSFL [S5C], the protein stability index is reported as 2.6.
Work on EQVFDLGDGVSGGFFGIRDSSFL [S5D] yielded a protein stability index of 3.74.
With EQVFGLGDGVSGGFFGIRDSSFL [S5G] the protein stability index was 3.27.
Variant EQVFRLGDGVSGGFFGIRDSSFL [S5R] has a protein stability index of 3.29.
In the case of EQVFKLGDGVSGGFFGIRDSSFL [S5K], the protein stability index is reported as 3.31.
With EQVFALGDGVSGGFFGIRDSSFL [S5A] the protein stability index was 2.98.
Variant EQVFELGDGVSGGFFGIRDSSFL [S5E] has a protein stability index of 3.81.
Variant EQVFHLGDGVSGGFFGIRDSSFL [S5H] has a protein stability index of 3.36.
EQVFVLGDGVSGGFFGIRDSSFL [S5V] showed a protein stability index of 2.44.
For EQVFQLGDGVSGGFFGIRDSSFL [S5Q], the protein stability index was 3.34.
Work on EQVFILGDGVSGGFFGIRDSSFL [S5I] yielded a protein stability index of 2.16.
Work on EQVFWLGDGVSGGFFGIRDSSFL [S5W] yielded a protein stability index of 1.83.
For EQVFMLGDGVSGGFFGIRDSSFL [S5M], the protein stability index was 2.67.
EQVFTLGDGVSGGFFGIRDSSFL [S5T] gave a protein stability index of 3.51.
For EQVFLLGDGVSGGFFGIRDSSFL [S5L], the protein stability index was 2.24.
For EQVFNLGDGVSGGFFGIRDSSFL [S5N], the protein stability index was 3.96.
For EQVFPLGDGVSGGFFGIRDSSFL [S5P], the protein stability index was 3.2.
EQVFSPGDGVSGGFFGIRDSSFL [L6P] gave a protein stability index of 3.96.
EQVFSNGDGVSGGFFGIRDSSFL [L6N] gave a protein stability index of 3.4.
For EQVFSSGDGVSGGFFGIRDSSFL [L6S], the protein stability index was 4.12.
EQVFSEGDGVSGGFFGIRDSSFL [L6E] showed a protein stability index of 4.69.
Work on EQVFSMGDGVSGGFFGIRDSSFL [L6M] yielded a protein stability index of 3.2.
With EQVFSCGDGVSGGFFGIRDSSFL [L6C] the protein stability index was 3.76.
EQVFSKGDGVSGGFFGIRDSSFL [L6K] showed a protein stability index of 3.86.
Work on EQVFSFGDGVSGGFFGIRDSSFL [L6F] yielded a protein stability index of 3.22.
In the case of EQVFSIGDGVSGGFFGIRDSSFL [L6I], the protein stability index is reported as 3.14.
With EQVFSVGDGVSGGFFGIRDSSFL [L6V] the protein stability index was 3.08.
For EQVFSAGDGVSGGFFGIRDSSFL [L6A], the protein stability index was 3.92.
Work on EQVFSHGDGVSGGFFGIRDSSFL [L6H] yielded a protein stability index of 3.97.
In the case of EQVFSTGDGVSGGFFGIRDSSFL [L6T], the protein stability index is reported as 3.27.
Variant EQVFSWGDGVSGGFFGIRDSSFL [L6W] has a protein stability index of 3.01.
In the case of EQVFSYGDGVSGGFFGIRDSSFL [L6Y], the protein stability index is reported as 3.42.
For EQVFSQGDGVSGGFFGIRDSSFL [L6Q], the protein stability index was 3.5.
EQVFSGGDGVSGGFFGIRDSSFL [L6G] gave a protein stability index of 4.31.
With EQVFSRGDGVSGGFFGIRDSSFL [L6R] the protein stability index was 4.26.
For EQVFSDGDGVSGGFFGIRDSSFL [L6D], the protein stability index was 3.73.
With EQVFSLGDGVSGEFFGIRDSSFL [G13E] the protein stability index was 4.08.
For EQVFSLGDGVSGRFFGIRDSSFL [G13R], the protein stability index was 2.96.
EQVFSLGDGVSGMFFGIRDSSFL [G13M] showed a protein stability index of 2.2.
For EQVFSLGDGVSGKFFGIRDSSFL [G13K], the protein stability index was 3.08.
With EQVFSLGDGVSGIFFGIRDSSFL [G13I] the protein stability index was 1.99.
